We go through one molecule from patent US20230044825A1 (CZ BIOHUB SF, published 2023).

The target of the experiment is ATXN2 (UniProt Q99700 1-1313, limits assumed). Nature of the experiment: fluorescence microscopy, co-localization in cells.
ATXN2, sequence (Q99700 whole entry): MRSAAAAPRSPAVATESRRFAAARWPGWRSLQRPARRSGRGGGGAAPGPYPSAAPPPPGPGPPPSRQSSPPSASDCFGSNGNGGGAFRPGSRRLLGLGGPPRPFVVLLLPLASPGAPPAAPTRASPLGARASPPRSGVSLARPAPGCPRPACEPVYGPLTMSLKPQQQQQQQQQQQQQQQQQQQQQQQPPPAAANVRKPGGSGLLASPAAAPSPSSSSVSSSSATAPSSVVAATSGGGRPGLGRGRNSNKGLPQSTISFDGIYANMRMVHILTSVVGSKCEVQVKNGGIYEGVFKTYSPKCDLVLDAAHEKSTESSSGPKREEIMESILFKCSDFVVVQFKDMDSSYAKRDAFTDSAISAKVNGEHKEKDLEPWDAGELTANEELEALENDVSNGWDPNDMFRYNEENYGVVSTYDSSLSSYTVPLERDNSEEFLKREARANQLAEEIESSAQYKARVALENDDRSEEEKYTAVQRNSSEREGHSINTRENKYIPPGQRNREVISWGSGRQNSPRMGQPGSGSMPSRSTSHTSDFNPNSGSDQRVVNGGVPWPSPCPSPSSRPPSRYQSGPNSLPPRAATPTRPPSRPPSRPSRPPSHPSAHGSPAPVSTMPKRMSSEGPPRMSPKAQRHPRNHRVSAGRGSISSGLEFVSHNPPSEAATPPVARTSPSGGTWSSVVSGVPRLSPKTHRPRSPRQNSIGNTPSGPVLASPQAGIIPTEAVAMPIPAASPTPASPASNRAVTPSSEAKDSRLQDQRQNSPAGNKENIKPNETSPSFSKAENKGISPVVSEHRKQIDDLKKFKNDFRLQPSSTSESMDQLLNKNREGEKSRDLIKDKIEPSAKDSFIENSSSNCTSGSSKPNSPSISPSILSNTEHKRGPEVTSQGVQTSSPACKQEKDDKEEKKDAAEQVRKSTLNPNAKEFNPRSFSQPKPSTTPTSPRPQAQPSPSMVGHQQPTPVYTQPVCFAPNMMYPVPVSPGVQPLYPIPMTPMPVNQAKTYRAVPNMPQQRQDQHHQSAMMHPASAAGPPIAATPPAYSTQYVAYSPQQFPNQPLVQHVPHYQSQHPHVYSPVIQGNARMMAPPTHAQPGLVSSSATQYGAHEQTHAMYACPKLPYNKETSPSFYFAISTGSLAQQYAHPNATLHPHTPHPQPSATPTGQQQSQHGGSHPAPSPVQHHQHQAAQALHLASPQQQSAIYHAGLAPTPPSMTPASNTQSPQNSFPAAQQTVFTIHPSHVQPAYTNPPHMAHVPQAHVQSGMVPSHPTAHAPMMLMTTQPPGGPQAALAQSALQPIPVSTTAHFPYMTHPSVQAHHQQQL

B1: GFP-PopTag (other)
chain: GGGGSGGGGSGGGGSGGGGSEVAEQLVGVSAASAAASAFGSLSSALLMPKDGRTLEDVVRELLRPLLKEWLDQNLPRIVETKVEEEVQRISRGRGA
notes: also called GFP-PopTag condensates; not shown: GFP; constructs subcloned into pcDNA3.1+N-eGFP
As to B1, the binding result is “no binding”.
